The text below walks through data of publication PMC5777258, “Phosphorylation of human enhancer filamentation 1 (HEF1) stimulates interaction with Polo-like kinase 1 leading to HEF1 localization to focal adhesions” (The Journal of Biological Chemistry, 2017).

In one assay the target is HEF1, endogenous (UniProt Q14511). Nature of the assay: GST pull-down (bead-conjugated GST-PBD) with anti-HEF1 immunoblot, bands quantified with ImageJ. Particulars: HeLa total cell lysate, parent: 1.0. For orientation: A western blot detects proteins with antibodies after separation by electrophoresis.
Assay [1] concerns the target T1, Polo box domain of mouse Plk1 (residues 367-603), for crystallization (mouse, UniProt Q07832 367-603).
T1 construct: Polo box domain of mouse Plk1, Swiss Prot entry Q07832, residues 367-603; residues 371-593 are in the final model; TEV site ENLYFQS between the tag and the PBD, cleaved between Q and S: a serine is left before the PBD; also called Plk1 PBD; Plk1-PBD; source: E. coli BL21 (DE3) CodonPlus RIL, purified (Ni-NTA, TEV digestion, Superdex-75 gel filtration); not shown: His6, N-terminal, cleaved
Briefly: crystal structure; Plk1 PBD (10 mg/ml) with pThr-804 peptide added in a 1:3 molar ratio, incubated overnight; sitting-drop vapor diffusion at 295 K, 0.1 M sodium citrate pH 5.5, 15% PEG 6000; 2.9 Å. To be noted: both partners purified.

Square brackets hold non-standard residues; d marks the D form. Ends that are not written are not given here. pT = C[C@@H](OP(=O)(O)O)[C@H](N)C(=O)O

Sequence of HEF1, endogenous (Q14511 whole entry, the tested form may be a part): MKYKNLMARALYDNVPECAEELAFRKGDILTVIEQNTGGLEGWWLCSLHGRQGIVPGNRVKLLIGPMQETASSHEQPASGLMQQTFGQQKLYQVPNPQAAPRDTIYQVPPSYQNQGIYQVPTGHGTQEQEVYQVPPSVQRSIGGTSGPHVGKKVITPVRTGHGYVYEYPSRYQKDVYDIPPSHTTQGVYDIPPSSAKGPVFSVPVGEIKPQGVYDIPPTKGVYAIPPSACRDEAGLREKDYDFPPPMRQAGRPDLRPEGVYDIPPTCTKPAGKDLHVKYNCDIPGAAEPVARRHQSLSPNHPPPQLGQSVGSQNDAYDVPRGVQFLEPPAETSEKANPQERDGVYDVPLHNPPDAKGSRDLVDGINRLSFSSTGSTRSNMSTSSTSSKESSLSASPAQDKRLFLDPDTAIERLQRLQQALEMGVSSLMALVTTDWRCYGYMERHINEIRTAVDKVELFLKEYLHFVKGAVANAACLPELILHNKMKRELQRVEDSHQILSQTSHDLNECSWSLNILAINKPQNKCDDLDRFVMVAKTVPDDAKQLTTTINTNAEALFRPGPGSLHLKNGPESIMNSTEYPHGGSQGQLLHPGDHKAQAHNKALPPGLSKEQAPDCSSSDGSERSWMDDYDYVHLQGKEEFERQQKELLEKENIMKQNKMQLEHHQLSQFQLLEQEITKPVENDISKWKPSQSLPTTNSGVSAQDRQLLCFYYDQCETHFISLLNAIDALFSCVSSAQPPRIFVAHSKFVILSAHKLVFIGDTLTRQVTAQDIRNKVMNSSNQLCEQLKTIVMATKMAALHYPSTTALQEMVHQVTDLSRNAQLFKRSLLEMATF
T1 sequence (Q07832 367-603): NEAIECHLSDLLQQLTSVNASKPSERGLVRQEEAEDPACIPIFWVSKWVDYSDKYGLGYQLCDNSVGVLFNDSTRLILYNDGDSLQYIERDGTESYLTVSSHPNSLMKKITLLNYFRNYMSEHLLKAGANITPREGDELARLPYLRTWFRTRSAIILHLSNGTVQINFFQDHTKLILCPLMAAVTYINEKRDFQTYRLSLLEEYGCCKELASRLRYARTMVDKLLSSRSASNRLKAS

Consider “GST-Plk1 PBD WT (Polo box domain of Plk1) H538A; K540M”, for which the ratio to parent was 0.1 with HEF1, endogenous (asynchronously growing (Async.)); 0.2 in the assay with HEF1, endogenous (nocodazole (Noc)-treated (M phase)); 0.1 with HEF1, endogenous (thymidine (Thy)-treated (S phase)).

B1: HEF1 pThr-804 peptide (799-LHYPSpTTALQE-809), free, for crystallization (peptide)
peptide: LHYPS[pT]TALQE
notes: HEF1 (NEDD9), human, aa 799-809; 800-HYPSpTTAL-807 is in the final model; source: synthetic peptide
For B1, the binding result in assay [1] is recorded as “binds”.
